Source: IntAct's records for PubMed 16777958

B1: Activated CDC42 kinase 1 (Mus musculus), O54967 (parent)
chain: MQPEEGTGWLLELLSEVQLQQYFLRLRDDLNITRLSHFEYVKNEDLEKIGMGRPGQRRLWEAVKRRKAMCKRKSWMSKVFSGKRLEAEFPSQHSQSTFRKPSPTPGSLPGEGTLQSLTCLIGEKDLRLLEKLGDGSFGVVRRGEWDAPAGKTVSVAVKCLKPDVLSQPEAMDDFIREVNAMHSLDHRNLIRLYGVVLTLPMKMVTELAPLGSLLDRLRKHQGHFLLGTLSRYAVQVAEGMAYLESKRFIHRDLAARNLLLATRDLVKIGDFGLMRALPQNDDHYVMQEHRKVPFAWCAPESLKTRTFSHASDTWMFGVTLWEMFTYGQEPWIGLNGSQILHKIDKEGERLPRPEDCPQDIYNVMVQCWAHKPEDRPTFVALRDFLLEAQPTDMRALQDFEEPDKLHIQMNDVITVIEGRAENYWWRGQNTRTLCVGPFPRNVVTSVAGLSAQDISQPLQNSFIHTGHGDSDPRHCWGFPDRIDELYLGNPMDPPDLLSVELSTSRPTQHLGRVKREPPPRPPQPAIFTQKTTYDPVSEDPDPLSSDFKRLGLRKPALPRGLWLAKPSARVPGTKADRSSGGEVTLIDFGEEPVVPTPRPCAPSLAQLAMDACSLLDKTPPQSPTRALPRPLHPTPVVDWDARPLPPPPAYDDVAQDEDDFEVCSINSTLVGAGLPAGPSQGETNYAFVPEQAQMPPALEDNLFLPPQGGGKPPSSVQTAEIFQALQQECMRQLQVPTGQLTPSPTPGGDDKPQVPPRVPIPPRPTRPRVELSPAPSGEEETSRWPGPASPPRVPPREPLSPQGSRTPSPLVPPGSSPLPHRLSSSPGKTMPTTQSFASDPKYATPQVIQAPGPRAGPCILPIVRDGRKVSSTHYYLLPERPPYLERYQRFLREAQSPEEPAALPVPPLLPPPSTPAPAAPTATVRPMPQAAPDPKANFSTNNSNPGARPPSLRAAARLPQRGCPGDGQEAARPADKVQMLQAMVHGVTTEECQAALQSHSWSVQRAAQYLKVEQLFGLGLRPRVECHKVLEMFDWNLEQAGCHLLGSCGPAHHKR

Variants of: B1
Settings: with NCK1, P16333-1

Variant | effect of a mutation on the interaction
K158A | disrupting interaction strength
